Experimental data from patent US20250346685A1 (published 2025).
Positions count from the first letter of the chain named.

T1: human CD3εγ-Fc heterodimer (human)
T1 construct: also called human CD3εγ recombinant protein; human CD3εγ protein
T1 chain 1: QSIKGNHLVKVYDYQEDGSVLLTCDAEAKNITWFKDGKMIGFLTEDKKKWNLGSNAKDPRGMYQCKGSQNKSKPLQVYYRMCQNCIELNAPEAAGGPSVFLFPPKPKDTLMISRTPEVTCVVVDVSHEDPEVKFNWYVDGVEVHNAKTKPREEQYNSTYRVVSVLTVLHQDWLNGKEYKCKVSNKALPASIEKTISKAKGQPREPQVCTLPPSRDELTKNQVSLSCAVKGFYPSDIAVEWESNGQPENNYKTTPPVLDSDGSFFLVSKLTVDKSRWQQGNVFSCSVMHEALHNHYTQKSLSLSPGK
T1 chain 2: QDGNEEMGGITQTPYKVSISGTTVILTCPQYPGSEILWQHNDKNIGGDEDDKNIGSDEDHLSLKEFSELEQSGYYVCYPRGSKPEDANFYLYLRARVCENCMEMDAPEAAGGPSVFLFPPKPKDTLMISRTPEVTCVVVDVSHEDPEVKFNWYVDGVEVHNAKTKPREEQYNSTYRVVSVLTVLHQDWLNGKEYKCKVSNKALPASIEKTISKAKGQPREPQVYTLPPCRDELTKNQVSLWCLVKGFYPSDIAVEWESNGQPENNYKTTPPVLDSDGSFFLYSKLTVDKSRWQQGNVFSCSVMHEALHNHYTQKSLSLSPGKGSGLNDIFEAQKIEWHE

B1: BCMA × CD3 κλ003 (bispecific antibody, human IgG4 S228P, kappa, lambda)
light 1: DIVLTQSPASLAVSPGQRATITCRASKSVSTSGYSYMHWYQKKPGQPPKLLIYLASNLESGVPARFSGSGSGTDFTLTINPVEAEDTANYYCQHSRELPWTFGQGTKVEIKRTVAAPSVFIFPPSDEQLKSGTASVVCLLNNFYPREAKVQWKVDNALQSGNSQESVTEQDSKDSTYSLSSTLTLSKADYEKHKVYACEVTHQGLSSPVTKSFNRGEC
heavy 1: QVQLVQSGSELKKPGASVKVSCKASGYIFTNFGMNWVREAPGQGLEWMGWINTYTGEQIYADGFTGRFVFSLDTSASTAYLQISSLKAEDTAVYFCARGEIYYGYDVGFVYWGQGTLVTVSSASTKGPSVFPLAPCSRSTSESTAALGCLVKDYFPEPVTVSWNSGALTSGVHTFPAVLQSSGLYSLSSVVTVPSSSLGTKTYTCNVDHKPSNTKVDKRVESKYGPPCPPCPAPEFEGGPSVFLFPPKPKDTLMISRTPEVTCVVVDVSQEDPEVQFNWYVDGVEVHNAKTKPREEQFNSTYRVVSVLTVLHQDWLNGKEYKCKVSNKGLASSIEKTISKAKGQPREPQVCTLPPSQEEMTKNQVSLSCAVKGFYPSDIAVEWESNGQPENNYKTTPPVLDSDGSFFLVSKLTVDKSRWQEGNVFSCSVMHEALHNHYTQKSLSLSLGK
light 2: QAVVTQEPSLTVSPGGTVTLTCRSSTGAVTTSNYANWVQEKPGQAPRGLIGGTNKRAPWTPARFSGSLLGGKAALTITGAQAEDEAEYYCVLWYSNLWVFGGGTKLTVLGQPKAAPSVTLFPPSSEELQANKATLVCLISDFYPGAVTVAWKADSSPVKAGVETTTPSKQSNNKYAASSYLSLTPEQWKSHRSYSCQVTHEGSTVEKTVAPTECS
heavy 2: EVQLVESGGGLVQPGGSLRLSCAASGFTFNTYAMNWVRKAPGKGLEWVGRIRSKYNNYATYYADSVKDRFTISRDDSKNSLYLQMNSLKTEDTAVYYCVRHGNFGNSYVSWFAYWGQGTLVTVSSASTKGPSVFPLAPCSRSTSESTAALGCLVKDYFPEPVTVSWNSGALTSGVHTFPAVLQSSGLYSLSSVVTVPSSSLGTKTYTCNVDHKPSNTKVDKRVESKYGPPCPPCPAPEFEGGPSVFLFPPKPKDTLMISRTPEVTCVVVDVSQEDPEVQFNWYVDGVEVHNAKTKPREEQFNSTYRVVSVLTVLHQDWLNGKEYKCKVSNKGLASSIEKTISKAKGQPREPQVYTLPPCQEEMTKNQVSLWCLVKGFYPSDIAVEWESNGQPENNYKTTPPVLDSDGSFFLYSKLTVDKSRWQEGNVFSCSVMHEALHNHYTQKSLSLSLGK
notes: also called BCMA×CD3 κλ bispecific antibody
B2: BCMA × CD3 κλ006 (bispecific antibody)
light 1: B1 light 1 with S30T, M37I, N57D, S60A
heavy 1: B1 heavy 1 with A76V
light 2: B1 light 2
heavy 2: B1 heavy 2
notes: as for B1
B3: BCMA × CD3 κλ005 (bispecific antibody)
light 1: B1 light 1
heavy 1: B1 heavy 1 with A76V
light 2: B1 light 2
heavy 2: B1 heavy 2
notes: as for B1
B4: aCD3-hVH1/VL5 (antibody, human IgG4, V domains shown)
VH: EVQLVESGGGLVQPGGSLRLSCAASGFTFNTYAMNWVRQAPGKGLEWVSRIRSKYNNYATYYADSVKDRFTISRDDSKNTLYLQMNSLRAEDTAVYYCVRHGNFGNSYVSWFAYWGQGTLVTVSS
VL: QAVVTQEPSLTVSPGGTVTLTCRSSTGAVTTSNYANWVQEKPGQAPRGLIGGTNKRAPWTPARFSGSLLGGKAALTITGAQAEDEAEYYCVLWYSNLWVFGGGTKLTVL
notes: also called humanized anti-CD3 antibody hVH1/VL5
B5: aCD3-hVH9/VL1 (antibody, human IgG4, V domains shown)
VH: B4 VH with Q39K, S49G, T80S, R89K, A90T
VL: B4 VL with E40Q, I77L, T78S, A82P, V91A
notes: also called humanized anti-CD3 antibody hVH9/VL1
B6: aCD3-hVH8/VL1 (antibody, human IgG4, V domains shown)
VH: B4 VH with Q39K, S49G, T80S, R89K, A90T, V99A
VL: B4 VL with E40Q, I77L, T78S, A82P, V91A
notes: also called humanized anti-CD3 antibody hVH8/VL1
B7: aCD3-hVH8/VL5 (antibody, human IgG4, V domains shown)
VH: B4 VH with Q39K, S49G, T80S, R89K, A90T, V99A
VL: B4 VL
notes: also called humanized anti-CD3 antibody hVH8/VL5
B8: aCD3-hVH9/VL3 (antibody, human IgG4, V domains shown)
VH: B4 VH with Q39K, S49G, T80S, R89K, A90T
VL: B4 VL with Q1E, R23E, T26D, R56E, I77L, T78S, A82P, V91A
notes: also called humanized anti-CD3 antibody hVH9/VL3

Target: T1, human CD3εγ-Fc heterodimer
Assay: SPR (Biacore T200), antigen amine-coupled on CM5 chip, antibody as analyte, 1:1 model
Experimental: 10 μg/mL human or cynomolgus monkey BCMA or CD3εγ recombinant antigen was bound to a CM5 chip (GE healthcare) by amino conjugating, while the amount of antigen bound was controlled to approximately 200 RU. After baseline plateau, gradient diluted antibodies (7 gradients of 2-fold dilutions from 10 μg/mL) were flowed through the chip at a flow rate of 30 μL/min for a binding time of 350 seconds and a dissociation time of 600 seconds. Kinetic constants were fitted using Biacore T200 evaluation software with a 1:1 binding model.

Which Kd does the source give for B1 here?
The Kd was 31 nM.

For B2, which Kd is on record?
The Kd was 27 nM.

How did the Kd turn out when B3 was run?
Its Kd is 28 nM.

Target: T2, human CD3 on T cells (Jurkat cells; human peripheral blood CD4+ and CD8+ T-cells) (human, UniProt P07766 23-207)
T2 construct: whole, on cells; also called CD4T; CD4 + T
Assay: flow cytometry on Jurkat cells
Experimental: Jurkat cells in logarithmic growth phase were blocked with 3% BSA for 30 min, added to 96-well U-plate at 5×10^4 cells per well, centrifuged to discard the supernatant, and added with 50 μL of gradient diluted antibody (antibody concentration:from 30 μg/mL, with 3-fold dilution for 5 gradients) per well, and incubated at 4° C. for 1 hour. After washing off the primary antibody, a 1:300 dilution of Alexa Fluro647 labeled goat anti-human IgG Fc (Jackson ImmunoResearch, 109-606-170) was added to the secondary antibody, incubated for 45 min at 4° C., and, after washing, resuspended in 50 μL of PBS per well for FACS (iQue, intellicyt) detection.

B4 was tested. Which “affinity (FACS)” value did it give?
The value was 10 nM.

Which “affinity (FACS)” value does the source give for B5 here?
The value was 7 nM.

B6 was tested. Which “affinity (FACS)” value did it give?
Its value is 15 nM.

Target: T1, human CD3εγ-Fc heterodimer
Assay: ELISA, coated human CD3εγ recombinant protein
Experimental: Human CD3εγ recombinant protein was coated overnight at 4° C. After blocking with 2% skim milk, different dilutions of CD3 antibody were added to each well and incubated for 1 hour. After the secondary antibody was developed by adding HPR-labeled goat anti-human IgG Fc and TMB solution, the reaction was stopped with concentrated sulfuric acid and the absorbance was read at 450 nm.

With B4 as the binder, how does the “affinity (ELISA)” value read?
Its value is 0.6 nM.

With B5 as the binder, how does the “affinity (ELISA)” value read?
Its value is 0.49 nM.

With B7 as the binder, how does the “affinity (ELISA)” value read?
Its value is 0.74 nM.

B8 was tested. Which “affinity (ELISA)” value did it give?
The value was 0.7 nM.

B6 was tested. Which “affinity (ELISA)” value did it give?
Its value is 0.65 nM.

Target: T2, human CD3 on T cells (Jurkat cells; …)
Assay: flow cytometry on human peripheral blood CD4+ T-cells
Experimental: Fresh human peripheral blood was taken and PBMC was isolated by Ficoll. Paque Plu (GE, 17-1440-03). PBMC was adjusted to 5×10⁵ cells/mL with 4% calf serum (Hyclone, SH30626.06), 100 μL/well was added to a 96-well U-plate, the supernatant was centrifuged off and 100 μL of gradient diluted antibody (with starting concentration of 1800 nM, 3-fold dilution, 10 gradients) was added to each well and incubated for 60 min at 4° C. 50 μL/well of Alexa Fluro647 labeled goat anti-human IgG Fc (1:300 dilution) was added to the secondary antibody, with ice bath for 20 min, and 50 μL/well PI added after washing once, incubated for 5 min, and flow cytometer (BD C6) was used for detection. The control antibody REGN5458 was synthesized and prepared according to US20200024356.

B1 was tested. Which EC50 did it give?
Its EC50 is 89 nM.
